Data taken from publication doi:10.1101/2021.12.02.470928.
Where two headings read alike, the source gives them in different places.

Key:
Assay in all cases: BLI
PAD M141F [1] = target: PAD M141F (UniProt Q96QC0)
PAD K122A [2] = target: PAD K122A (UniProt Q96QC0)
PAD A114K [3] = target: PAD A114K (UniProt Q96QC0)
PAD M141W [4] = target: PAD M141W (UniProt Q96QC0)
PAD K118A = PAD K118A (UniProt Q96QC0)
PAD K109A = PAD K109A (UniProt Q96QC0)
PAD K122A [5] = target: PAD K122A (UniProt Q96QC0); remark: listed apart in the source
PAD M141F [6] = target: PAD M141F (UniProt Q96QC0); remark: listed apart in the source
PAD M141W [7] = target: PAD M141W (UniProt Q96QC0); remark: listed apart in the source
PAD A114K [8] = target: PAD A114K (UniProt Q96QC0); remark: listed apart in the source

PAD A114K, sequence (Q96QC0 1-148 A114K): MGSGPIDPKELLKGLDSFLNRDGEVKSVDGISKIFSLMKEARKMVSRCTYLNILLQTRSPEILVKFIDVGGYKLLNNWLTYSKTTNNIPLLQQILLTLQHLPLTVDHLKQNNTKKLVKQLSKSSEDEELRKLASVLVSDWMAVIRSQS
PAD K122A, sequence (Q96QC0 1-148 K122A): as the sequence (Q96QC0 1-148 A114K) above, with K114A, K122A counted along it
PAD M141F, sequence (Q96QC0 1-148 M141F): as the sequence (Q96QC0 1-148 A114K) above, with K114A, M141F counted along it
PAD M141W, sequence (Q96QC0 1-148 M141W): as the sequence (Q96QC0 1-148 A114K) above, with K114A, M141W counted along it
PAD K118A, sequence (Q96QC0 1-148 K118A): as the sequence (Q96QC0 1-148 A114K) above, with K114A, K118A counted along it
PAD K109A, sequence (Q96QC0 1-148 K109A): as the sequence (Q96QC0 1-148 A114K) above, with K109A, K114A counted along it

- Kd (PAD M141F [1]): 19 µM
- Kd (PAD K122A [2]): 35 µM
- Kd (PAD A114K [3]): 52 µM
- Kd (PAD M141W [4]): 24 µM
- Kd (PAD K118A): 12 µM
- Kd (PAD K109A): 27 µM
- Kd (PAD K122A [5]): 35 µM
- Kd (PAD M141F [6]): 19 µM
- Kd (PAD M141W [7]): 24 µM
- Kd (PAD A114K [8]): 52 µM
Substance: biotinyl-MB0 peptide (MYC 16-33) (from UniProt P01106-2 16-33)
